The values that follow are results of earlier work, collected in patent US20250352622A1, “GLP-1 FORMULATIONS AND THEIR USES” (Rose Pharma Inc., priority 2024, published 2025).

Like-named read-outs stand apart in the source and are kept apart here.

With dulaglutide, where the note is “longer acting GLP-1 agonist”, the t1/2 entry is on record as “about 90 hours”.
On to lixisenatide, for which the half-life entry (in vivo) is given as “about 3 hours”.
As to semaglutide, where the note is “in vivo”, the t1/2 result is “about 1 week”.
Take tirzepatide: the t1/2 result (in vivo) is “about 5 days”.
